Biological target: mouse Cav1.3 α1 subunit expressed in HEK cells (mouse) (UniProt Q99246)
Sequence (Q99246 whole entry): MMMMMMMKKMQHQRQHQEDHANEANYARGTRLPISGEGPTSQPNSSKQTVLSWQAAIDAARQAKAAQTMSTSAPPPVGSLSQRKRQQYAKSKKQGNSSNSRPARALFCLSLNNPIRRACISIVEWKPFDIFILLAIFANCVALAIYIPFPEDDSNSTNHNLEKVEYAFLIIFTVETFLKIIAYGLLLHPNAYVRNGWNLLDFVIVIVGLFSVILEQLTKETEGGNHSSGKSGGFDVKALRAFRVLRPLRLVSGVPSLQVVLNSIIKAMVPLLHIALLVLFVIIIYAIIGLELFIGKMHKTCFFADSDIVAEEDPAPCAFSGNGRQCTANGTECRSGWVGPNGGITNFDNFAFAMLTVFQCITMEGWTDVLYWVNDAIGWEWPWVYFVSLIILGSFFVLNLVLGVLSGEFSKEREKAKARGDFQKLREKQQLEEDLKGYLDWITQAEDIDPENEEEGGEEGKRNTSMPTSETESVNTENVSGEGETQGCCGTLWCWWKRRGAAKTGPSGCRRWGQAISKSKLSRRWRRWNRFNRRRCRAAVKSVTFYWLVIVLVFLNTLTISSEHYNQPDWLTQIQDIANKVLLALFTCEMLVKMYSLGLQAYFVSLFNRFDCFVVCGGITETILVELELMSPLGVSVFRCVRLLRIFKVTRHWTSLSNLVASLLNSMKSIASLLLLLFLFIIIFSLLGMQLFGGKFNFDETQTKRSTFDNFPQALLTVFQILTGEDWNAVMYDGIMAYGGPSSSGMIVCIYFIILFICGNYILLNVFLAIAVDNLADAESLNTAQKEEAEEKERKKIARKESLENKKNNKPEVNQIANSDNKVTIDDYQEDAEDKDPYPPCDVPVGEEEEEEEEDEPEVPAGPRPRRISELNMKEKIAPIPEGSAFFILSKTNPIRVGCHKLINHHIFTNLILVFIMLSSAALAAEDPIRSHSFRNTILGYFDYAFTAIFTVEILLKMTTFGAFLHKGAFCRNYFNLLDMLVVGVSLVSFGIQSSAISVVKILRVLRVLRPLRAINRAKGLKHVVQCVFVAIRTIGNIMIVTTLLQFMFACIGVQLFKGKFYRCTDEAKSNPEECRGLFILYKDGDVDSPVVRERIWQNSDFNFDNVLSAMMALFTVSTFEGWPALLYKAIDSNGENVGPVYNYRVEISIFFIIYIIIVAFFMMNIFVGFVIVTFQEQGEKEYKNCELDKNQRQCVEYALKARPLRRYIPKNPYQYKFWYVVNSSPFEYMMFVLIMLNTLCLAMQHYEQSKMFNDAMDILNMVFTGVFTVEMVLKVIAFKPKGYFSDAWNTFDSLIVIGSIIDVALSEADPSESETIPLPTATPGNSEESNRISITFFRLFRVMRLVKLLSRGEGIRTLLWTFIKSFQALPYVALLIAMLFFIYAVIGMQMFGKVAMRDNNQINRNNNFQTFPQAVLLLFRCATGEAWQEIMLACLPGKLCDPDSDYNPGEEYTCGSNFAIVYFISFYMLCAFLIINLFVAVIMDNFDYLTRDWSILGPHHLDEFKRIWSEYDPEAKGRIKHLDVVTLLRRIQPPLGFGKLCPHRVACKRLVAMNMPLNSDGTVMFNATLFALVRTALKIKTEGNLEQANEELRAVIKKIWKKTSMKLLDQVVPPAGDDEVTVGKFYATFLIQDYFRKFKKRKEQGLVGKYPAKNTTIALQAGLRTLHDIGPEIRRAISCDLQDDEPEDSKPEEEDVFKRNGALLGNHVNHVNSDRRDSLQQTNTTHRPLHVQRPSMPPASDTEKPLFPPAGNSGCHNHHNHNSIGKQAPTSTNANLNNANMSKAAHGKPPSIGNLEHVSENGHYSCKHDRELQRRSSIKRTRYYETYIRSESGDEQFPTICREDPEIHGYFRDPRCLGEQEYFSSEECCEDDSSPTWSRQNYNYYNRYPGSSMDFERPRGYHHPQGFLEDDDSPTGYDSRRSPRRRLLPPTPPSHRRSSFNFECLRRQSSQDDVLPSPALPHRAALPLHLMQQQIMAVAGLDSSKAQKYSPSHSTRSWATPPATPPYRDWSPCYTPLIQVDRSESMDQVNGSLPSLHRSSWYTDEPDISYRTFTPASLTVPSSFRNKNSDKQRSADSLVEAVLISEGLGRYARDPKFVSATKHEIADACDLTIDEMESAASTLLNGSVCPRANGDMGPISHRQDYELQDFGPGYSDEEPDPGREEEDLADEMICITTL

shift of the current-membrane voltage relationship (voltage-dependent activation) of Cav1.3-LTCCs on co-transfection with RS1, HEK cells: -10 mV
B1: human RS1 (wild type) expressed in HEK cells (natural protein)
chain: STEDEGEDPWYQKACKCDCQGGPNALWSAGATSLDCIPECPYHKPLGFESGEVTPDQITCSNPEQYVGWYSSWTANKARLNSQGFGCAWLSKFQDSSQWLQIDLKEIKVISGILTQGRCDIDEWMTKYSVQYRTDERLNWIYYKDQTGNNRVFYGNSDRTSTVQNLLRPPIISRFIRLIPLGWHVRIAIRMELLECVSKCA

From PMC5550728
